Source: patent publication US20250250297A1, “CO-ASSEMBLED PEPTIDE GRANULES FOR INTRACELLULAR PROTEIN DELIVERY” (University of Florida Research Foundation, Incorporated, priority 2022, published 2025)
One block for each molecule: values may come before it. No end group written: not given here.

B2: mCATCH(+) peptide, Ac-QQKPKPKPKQQ-Am (peptide)
peptide: Ac-QQKPKPKPKQQ-NH2
notes: Proline residues replace the phenylalanine residues of CATCH(+); also called mutant of CATCH(+)

What was measured:
cells = assay: Delivery of granules comprising three co-assembling peptides; FACS sorting and NanoLuciferase activity; format: cell-based; conditions: for delivery into cells via granules of three co-assembling peptides: granules with CATCH(6+) and two distinct CATCH(6−) fusion peptides
Experimental: Therein, the ability of cells to take up granules comprising three co-assembling peptides (e.g., a CATCH(6+) and two distinct CATCH(6−) fusion peptides comprising different fluorescent or colorimetric markers) was tested. […] Subsequent fluorescent-activated cell sorting (FACS) procedures were used to sort GFP-positive cells.

[1] = Granule formation with molar excess of positive peptide: effect of concentration, ion content and pH; format: physicochemical; conditions: molar excess of CATCH(6+) relative to CATCH(6−)-GFP
Experimental: This example describes the effect on granule formation of using positive peptides in molar excess relative to negative peptides. Samples comprising molar excess of positive peptide (e.g., CATCH(6+)) relative to negative peptide (e.g., CATCH(6−)-GFP) were prepared and granule formation was measured after peptide co-assembly (see FIG. 61). […] Therein, the effect of sample ion content on granule formation was tested. Samples comprised 2 mM CATCH(6+) or CATCH(4+) and 30 μM CATCH(6−)-GFP.

cells in vitro = assay: Granule uptake compared to cell-penetrating peptide (L17E and Pep-1) uptake; CATCH(6+) titration; cell count; format: cell-based
[2] = aqueous media; cited from earlier work
[3] = Protein incorporation into macroscopic hydrogels (GFP retention under excess 1×PBS); format: physicochemical
Experimental: Macroscopic Hydrogel Formation. A 12 mM stock solution of CATCH(−) was prepared by dissolving dry peptide in 1×PBS and adjusting the pH to ˜7.6 with ammonium bicarbonate (Fisher). A 12 mM stock solution of CATCH(+) was prepared by dissolving dry peptide in 1×PBS and adjusting the pH to ˜7.2 with hydrochloric acid (0.5 N Fisher). CATCH peptide stock solutions were combined at a 1:1 (v/v) ratio in a 0.2 mL glass vial (Thermo), and the vial was gently swirled for 2 min until the hydrogel formed. The hydrogel was stained with red food coloring to aid visualization. Hydrogel images were recorded using a digital still camera.
Protein Incorporation into Macroscopic Hydrogels. […] Immediately after hydrogel formation, fluorescence was visualized by placing the glass vials on a SafeImager 2.0 transilluminator (Invitrogen) and recording images with a digital still camera. […] At various time points, fluorescence in the buffer supernatant was visualized by placing the glass vials on a SafeImager 2.0 transilluminator (Invitrogen) and recording images with a digital still camera. At the endpoint, buffer supernatant was carefully removed by decanting and fluorescence was visualized by placing the glass vials on a SafeImager 2.0 transilluminator (Invitrogen) and recording images with a digital still camera.

[4] = molecular target: B2; assay: ThT fluorimetry, equimolar mixture in 1x PBS
Experimental: (§1) Thioflavin T (ThT) Assay. A ThT stock solution containing 0.8 mg/mL of thioflavin T (Acros) in 1× phosphate-buffered saline (PBS) (137 mM NaCl, 2.7 mM KCl, 10 mM Na₂HPO₄ and 1.8 mM KH₂PO₄, pH 7.4) was filtered through a 0.22 μm syringe filter (Millex), and further diluted 1:10 with 1×PBS to create a working solution. Peptide samples were mixed with the ThT working solution at a 1:10 (v/v) ratio, added to a black 96-well plate (Corning), and analyzed with a Molecular Devices SpectraMax M3 spectrophotometer (excitation 450, emission 482 nm). All samples were run in triplicate, with the mean and standard deviation of these samples reported.

[5] = molecular target: the molecule itself; assay: TEM; circular dichroism also showed predominantly random coil when incubated alone
[6] = molecular target: T1, mCATCH(-) peptide, Ac-EQEPEPEPEQE-Am; assay: ThT fluorimetry, kinetic analysis
T1 construct: Proline residues replace the phenylalanine residues of CATCH(-); also called mutant of CATCH(-)
T1 peptide: Ac-EQEPEPEPEQE-NH2

[7] = molecular target: T1, mCATCH(-) peptide, Ac-EQEPEPEPEQE-Am; assay: ThT fluorimetry, equimolar mixture in 1x PBS
Experimental: as §1

Molecule: CATCH(6−)-NanoLuciferase: CATCH(6−) fusion with NanoLuciferase (EQEFEFEFEQE; not fully specified (C-terminus); also: fusion with NanoLuciferase, not in chain)
NanoLuciferase activity in sorted GFP-positive cells (cells; after FACS, granules with CATCH(6−)-GFP and CATCH(6−)-NanoLuciferase): high levels
delivery into cells via granules of three co-assembling peptides (cells): successfully delivered into cells

Molecule: KQKFKFKFKQK [CATCH(6+)]
granule size by scanning electron microscopy at higher positive peptide concentrations [1]: larger granules
effect of titration of peptide concentration on number of transduced cells (cells in vitro): enabled control on the number of transduced cells

Molecule: CATCH(6−)-mRuby: CATCH(6−) fusion peptide with fluorescent marker mRuby (EQEFEFEFEQE; not fully specified (C-terminus); also: fusion with mRuby, not in chain)
delivery into cells via granules of three co-assembling peptides (cells): delivered into cells

Molecule: Ac-QQKFQFQFEQQ-Am (Ac-QQKFQFQFEQQ-NH2) [Q11]
concentration at which peptide self-assembles into β-sheet nanofibers [2]: ~10 µM

Molecule: CATCH(−)GFP: recombinant fusion of CATCH(−) and superfolder green fluorescent protein (GFP)
fluorescence of CATCH hydrogels after incubation under volumetric excess of 1×PBS ([3]; 48 h, hydrogel from 12 mM CATCH(+) and CATCH(−)): retained their fluorescence
GFP in the buffer layer over hydrogels ([3]; up to 48 h under excess 1×PBS): no GFP was detected
delivery into cells via granules of three co-assembling peptides (cells): delivered into cells

binding result [4]: no binding
B1: CATCH(-) peptide, Ac-EQEFEFEFEQE-Am (peptide)
peptide: Ac-EQEFEFEFEQE-NH2
notes: Synthetic anionic variant of Q11; also called CATCH(6-); CATCH (6-)
binding result [5]: no binding

Molecule: B2
binding result [6]: no binding

binding result [7]: no binding
B3: CATCH(+) peptide, Ac-QQKFKFKFKQQ-Am (peptide)
peptide: Ac-QQKFKFKFKQQ-NH2
notes: Synthetic cationic variant of Q11; also called CATCH(4+); CATCH (4+)
binding result [5]: no binding
